According to the supplement of paper PMC9233669:
This sample holds only a part of the variants without activity.

Experiments:
biotinyl-Ile-oxazolone = experiment: self-aminoacylation, catalytic enhancement (BIO) (fold over background); higher = more active; k-Seq, kA / k0A0; sequences stand for … in GGGAAUGGAUCCACAUCUACGAAUUC…UUCACUGCAGACUUGACGAAGCUG
Summary of the method: (§1)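 The uncatalyzed rate is the low-activity peak of a bimodal Gaussian fit, and catalytic enhancement is median kA divided by it. The kA values came from pseudo-first-order fits, with 1000 bootstraps, of per-sequence fraction reacted measured by streptavidin capture, triplicate qPCR and Illumina sequencing. Mutagenized RNA pools with a 21-nt variable region (0.43 μM) were reacted with each biotinyl-aminoacyl-oxazolone at 2–1250 μM in 50 μL HEPES/NaCl/KCl/MgCl2/CaCl2 buffer with 5% acetonitrile, pH 6.9–7.0, for 90 minutes at room temperature.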

biotinyl-Met-oxazolone = experiment: self-aminoacylation, catalytic enhancement (BMO) (fold over background); higher = more active; k-Seq, kA / k0A0; sequences stand for … in GGGAAUGGAUCCACAUCUACGAAUUC…UUCACUGCAGACUUGACGAAGCUG
Summary of the method: as §1

biotinyl-Phe-oxazolone = experiment: self-aminoacylation, catalytic enhancement (BFO) (fold over background); higher = more active; k-Seq, kA / k0A0; sequences stand for … in GGGAAUGGAUCCACAUCUACGAAUUC…UUCACUGCAGACUUGACGAAGCUG
Summary of the method: as §1

biotinyl-Trp-oxazolone = experiment: self-aminoacylation, catalytic enhancement (BWO) (fold over background); higher = more active; k-Seq, kA / k0A0; sequences stand for … in GGGAAUGGAUCCACAUCUACGAAUUC…UUCACUGCAGACUUGACGAAGCUG
Summary of the method: as §1

biotinyl-Leu-oxazolone = experiment: self-aminoacylation, catalytic enhancement (BLO) (fold over background); higher = more active; k-Seq, kA / k0A0; sequences stand for … in GGGAAUGGAUCCACAUCUACGAAUUC…UUCACUGCAGACUUGACGAAGCUG
Summary of the method: as §1

biotinyl-Val-oxazolone = experiment: self-aminoacylation, catalytic enhancement (BVO) (fold over background); higher = more active; k-Seq, kA / k0A0; sequences stand for … in GGGAAUGGAUCCACAUCUACGAAUUC…UUCACUGCAGACUUGACGAAGCUG
Summary of the method: as §1

Sequence	self-aminoacylation (biotinyl-Ile-oxazolone)	self-aminoacylation (biotinyl-Met-oxazolone)	self-aminoacylation (biotinyl-Phe-oxazolone)	self-aminoacylation (biotinyl-Trp-oxazolone)	self-aminoacylation (biotinyl-Leu-oxazolone)	self-aminoacylation (biotinyl-Val-oxazolone)
AUUACCCUUGUCAUUGAGUGA [Fam2.1 aminoacylation ribozyme variant]	4.11	8.1	34	10.6	8.5	4.34
AUUACCGUAGUCAUCGAGUGA [Fam2.1 aminoacylation ribozyme variant]	2.94	4.79	26	7.23	5.83	3.22
AUUACCGUGGUCACCGAGUGA [Fam2.1 aminoacylation ribozyme variant]	2.39	3.87	9.08	2.95	3.65	2.83
AUUACCGUGGUCAUAGAGUGA [Fam2.1 aminoacylation ribozyme variant]	3.67	7.8	35.7	7.99	6.95	3.97
AUUACCGUGGUCAUCGCGUGA [Fam2.1 aminoacylation ribozyme variant]	8.94	17.7	140	22.2	21.5	11
AUUACCGUGGUCAUCUAGUGA [Fam2.1 aminoacylation ribozyme variant]	3.29	6.98	31.2	7.82	6.26	3.82
AUUACCGUGGUCAUUGAGUGA [Fam2.1 aminoacylation ribozyme variant]	3.37	5.36	28.2	7.1	6	3.21
AUUACCUUAGUCAUCGAGUGA [Fam2.1 aminoacylation ribozyme variant]	2.71	4.41	14.8	5.48	4.62	2.59
AUUACCUUGGGCAUCGAGUGA [Fam2.1 aminoacylation ribozyme variant]	2.87	5.33	17.4	6.65	5.27	2.91
AUUACCUUGGUCAUAGAGUGA [Fam2.1 aminoacylation ribozyme variant]	3.58	6.82	25.4	9.04	7.24	3.69
AUUACCUUGGUCAUCAAGUGA [Fam2.1 aminoacylation ribozyme variant]	1.97	3.32	3.79	4.02	3.54	1.92
AUUACCUUGGUCAUCGAGUGU [Fam2.1 aminoacylation ribozyme variant]	2.19	3.47	3.39	3.8	3.59	2.37
AUUACCUUGGUCAUCGAUUGA [Fam2.1 aminoacylation ribozyme variant]	0.907	0.916	0.71	0.601	0.855	0.824
AUUACCUUGGUCAUCGUGUGA [Fam2.1 aminoacylation ribozyme variant]	1.53	2.55	16.2	3.57	2.71	1.57
AUUACCUUGGUGAUCGAGUGA [Fam2.1 aminoacylation ribozyme variant]	2.25	4.39	19.7	5.81	4.39	2.32
AUUACCUUGUUCAUCGAGUGA [Fam2.1 aminoacylation ribozyme variant]	3.4	6.95	26.1	8.47	6.6	3.95
AUUACGCUGAUCAUCGAGUGA [Fam2.1 aminoacylation ribozyme variant]	3.16	5.61	15	6.11	5.8	3.36
AUUACGCUGGUCAACGAGUGA [Fam2.1 aminoacylation ribozyme variant]	2.42	3.33	5.51	3.71	3	2.71
AUUACGCUGGUCAGCGAGUGA [Fam2.1 aminoacylation ribozyme variant]	3.34	4.57	21.2	4.4	4.3	2.4
AUUACGCUGGUCAUCGAGUUA [Fam2.1 aminoacylation ribozyme variant]	1.28	1.54	0.893	0.917	1.41	1.43
AUUACGCUGGUCAUCGAUUGA [Fam2.1 aminoacylation ribozyme variant]	1.18	1.29	0.858	1.41	1.24	1.18
AUUACGCUGGUCGUCGAGUGA [Fam2.1 aminoacylation ribozyme variant]	1.37	1.25	4.94	1.37	1.49	1.36
AUUACGUUGGUCAUCGAGUGA [Fam2.1 aminoacylation ribozyme variant]	3.1	4.23	11.7	5.9	4.86	3.18
AUUACUCUGCUCAUCGAGUGA [Fam2.1 aminoacylation ribozyme variant]	1.29	1.58	2.12	1.92	1.57	1.3
AUUACUCUGGACAUCGAGUGA [Fam2.1 aminoacylation ribozyme variant]	2.93	5.55	30.9	8.33	6.1	2.83
AUUACUCUGGUCACCGAGUGA [Fam2.1 aminoacylation ribozyme variant]	3.28	7.28	44.4	9.08	8.45	3.27

Sequence	self-aminoacylation (biotinyl-Ile-oxazolone)	self-aminoacylation (biotinyl-Met-oxazolone)	self-aminoacylation (biotinyl-Phe-oxazolone)	self-aminoacylation (biotinyl-Trp-oxazolone)	self-aminoacylation (biotinyl-Leu-oxazolone)	self-aminoacylation (biotinyl-Val-oxazolone)
AUUACUCUGGUCAUCGAGUAA [Fam2.1 aminoacylation ribozyme variant]	2.21	2.23	1.42	2.27	1.92	1.79
AUUACUCUGGUCAUCUAGUGA [Fam2.1 aminoacylation ribozyme variant]	4.55	9.64	42.8	11.4	9.74	4.34
AUUACUCUGGUCGUCGAGUGA [Fam2.1 aminoacylation ribozyme variant]	1.08	1.16	0.488	0.657	1.31	1.16
AUUACUCUGGUGAUCGAGUGA [Fam2.1 aminoacylation ribozyme variant]	2.92	5.34	21.8	6.39	5.72	2.57
AUUACUCUGUUCAUCGAGUGA [Fam2.1 aminoacylation ribozyme variant]	1.9	2.88	3.86	3.94	3.42	1.94
AUUACUCUUGUCAUCGAGUGA [Fam2.1 aminoacylation ribozyme variant]	3.58	6.03	22	7.7	6.33	3.45
AUUAGCCUAGUCAUCGAGUGA [Fam2.1 aminoacylation ribozyme variant]	2.47	2.65	4.14	3.09	2.79	2.18
AUUAGCCUGGACAUCGAGUGA [Fam2.1 aminoacylation ribozyme variant]	3.91	8.78	45.3	8.52	9.56	3.53
AUUAGCCUGGUCAUCGAGCGA [Fam2.1 aminoacylation ribozyme variant]	2.55	2.52	2.04	4.5	2.59	2.53
AUUAGCCUGGUCAUCGCGUGA [Fam2.1 aminoacylation ribozyme variant]	10.3	21.7	165	22.6	22.3	11.2
AUUAGCCUGGUCAUCUAGUGA [Fam2.1 aminoacylation ribozyme variant]	3.39	4.79	19.2	6.32	5.06	2.98
AUUAGCCUGGUCAUGGAGUGA [Fam2.1 aminoacylation ribozyme variant]	2.77	4.09	17.2	4.92	4.02	2.72
AUUAGCCUGUUCAUCGAGUGA [Fam2.1 aminoacylation ribozyme variant]	3.04	5.64	18	7.22	5.5	3.27
AUUAGUCUGGUCAUCGAGUGA [Fam2.1 aminoacylation ribozyme variant]	3.35	3.43	13	3.94	4.42	2.62
AUUAUCCCGGUCAUCGAGUGA [Fam2.1 aminoacylation ribozyme variant]	4.32	8.46	61.2	11	10.6	4.35
AUUAUCCUAGUCAUCGAGUGA [Fam2.1 aminoacylation ribozyme variant]	3.35	5.97	26.4	8.1	6.53	3.15
AUUAUCCUGAUCAUCGAGUGA [Fam2.1 aminoacylation ribozyme variant]	4.92	11.1	60	11.8	11.4	4.92
AUUAUCCUGGUCAUAGAGUGA [Fam2.1 aminoacylation ribozyme variant]	4.58	9.86	59	11.7	10.1	4.11
AUUAUCCUGGUCAUCGAGAGA [Fam2.1 aminoacylation ribozyme variant]	1.08	0.869	1.15	0.862	0.847	0.989
AUUAUCCUGGUCAUCGUGUGA [Fam2.1 aminoacylation ribozyme variant]	2.15	3.54	28.6	5.91	3.83	2.05
AUUAUCCUGUUCAUCGAGUGA [Fam2.1 aminoacylation ribozyme variant]	2.87	5.98	22.6	7.47	6	3
AUUAUCCUUGUCAUCGAGUGA [Fam2.1 aminoacylation ribozyme variant]	3.49	6.66	25.2	8.67	6.7	3.57
AUUCAACAAGGUCAUCGGGUG [Fam2.2 aminoacylation ribozyme variant]	4.09	7.02	57.7	5.71	7.96	3.32
AUUCAACUAGGGCAUCGGGUG [Fam2.2 aminoacylation ribozyme variant]	2.7	3.16	22.4	2.99	4.3	2.88
AUUCAACUAGGUCAUCGCGUG [Fam2.2 aminoacylation ribozyme variant]	5.91	9.12	65.2	9.5	13.6	5.81
